The results in this text go back to US20180244777A1 (NUMAB THERAPEUTICS, published 2018).

Numbering of substitutions follows the chain as printed.

First the molecules themselves.
B1: clone-10 (antibody, V domains shown)
VH: QSLEESGGRLVTPGTPLTLTCTVSGFPLSSFAMLWVRQAPGKGLEWIGMIMRAHNMYYASWAKGRFTISKTSTTVDLEITSPTTEDTATYFCARRHYNTYGYPIAIGDLWGPGTLVTVSS
VL: AQVLTQTPSSVSAAVGGTATISCQSNENIYSNNRLSWFQQKAGQPPNQLIYSASSLASGVPSRFKGSGSGTQFTLTISDLECDDAATYYCQGEFSCSSADCFTFGGGTEVVVKG
notes: Recombinant rabbit IgG
B2: clone-01 (antibody, V domains shown)
VH: B1 VH with L3V, F31Y, L34I, M51L, H54G, M56I, E78K, H96Q, Y100D, A105G
VL: B1 VL with P8A, A19V, N26S, N28S, I29V, S31N, A42P, N47K
notes: Recombinant rabbit IgG; also called purified monoclonal rabbit anti-CD3ε antibody clone-01
B3: clone-11 (antibody, V domains shown)
VH: B1 VH with F31Y, L34G, V36F, M51L, H54D, M56T, A62V, K63N, E78K, I104V
VL: AQVLTQTPSSVSAAVGGTVTINCQSSQSVYNNNRLSWFQQKPGQPPKLLIYTASSLASGVPSRFKGSGSGTEFTLTISDLECADAATYYCQGEFSCSSADCFTFGGGTEVVVKG
notes: Recombinant rabbit IgG
B4: clone-12 (antibody, V domains shown)
VH: B1 VH with S30R, F31Y, M49L, M51T, H54D, M56K, Y100D
VL: B1 VL with A14T, A19V, A42P, N47K, Q48L, S95N, S97N
notes: Recombinant rabbit IgG
B5: clone-09 (antibody, V domains shown)
VH: QSLEESGGRLVTPGTPLTLTCTVSGFPLNRYAMLWVRQAPGKGLEWIGLITRADKKYYASWAKGRFTISKTSTTVDLEITGPTTEDTATYFCARRHYNTDGYPVAIGDLWGPGTLVTVSS
VL: B1 VL with A19V, A42P, S95N, S97N
notes: Recombinant rabbit IgG

One assay concerns the target human CD3ε expressed on the cell surface of T cells (Jurkat cells; human CD8+ T cells) (human) (UniProt P07766). In words: cell-based or functional assay.
In turn, OKT3 (antibody) gave a Fold increase in CD69 expression [MFI normalized to neg. ctrl.], 1.25 µg/ml anti-CD3 IgG of 1.8 fold; a Fold increase in CD69 expression [MFI normalized to neg. ctrl.], 5 µg/ml anti-CD3 IgG of 2.5 fold; a Fold increase in CD69 expression [MFI normalized to neg. ctrl.], 20 µg/ml anti-CD3 IgG of 3.1 fold.
For TR66 (antibody), the Fold increase in CD69 expression [MFI normalized to neg. ctrl.], 1.25 µg/ml anti-CD3 IgG was 1.6 fold; the Fold increase in CD69 expression [MFI normalized to neg. ctrl.], 5 µg/ml anti-CD3 IgG worked out at 2.2 fold; the Fold increase in CD69 expression [MFI normalized to neg. ctrl.], 20 µg/ml anti-CD3 IgG is 3 fold.

For the next assay, the target named is T1, human CD3ε expressed on the cell surface of T cells (Jurkat cells; human CD8+ T cells) (human, UniProt P07766 23-207). Description: cell-based or functional assay.
On to B1, for which the “Fold increase in CD69 expression [MFI normalized to neg. ctrl.], 1.25 µg/ml anti-CD3 IgG” value is 2.6 fold; the “Fold increase in CD69 expression [MFI normalized to neg. ctrl.], 5 µg/ml anti-CD3 IgG” value is 4.2 fold; the “Fold increase in CD69 expression [MFI normalized to neg. ctrl.], 20 µg/ml anti-CD3 IgG” value came to 6.2 fold.

The target in a further assay is T2, cynomolgus monkey heterodimeric single-chain CD3εγ extracellular domain (cynomolgus monkey, UniProt Q95LI5 22-117; Q95LI7 23-113). In words: SPR; ratio of the KDs for cyno and human single-chain CD3εγ. Background: SPR reads the build-up and loss of mass on a sensor chip optically.
T2 sequence (Q95LI7 other isoform, or with tags, fused parts or gaps): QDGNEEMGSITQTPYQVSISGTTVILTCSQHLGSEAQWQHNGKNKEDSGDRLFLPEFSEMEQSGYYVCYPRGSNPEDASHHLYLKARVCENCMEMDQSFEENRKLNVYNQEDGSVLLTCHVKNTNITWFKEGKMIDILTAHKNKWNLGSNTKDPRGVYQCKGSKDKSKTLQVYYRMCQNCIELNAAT
Regarding B2, the “KD (human)/KD (cyno)” value came out at 3.
Consider B3, for which the “KD (human)/KD (cyno)” value is 3.
The same measure, in the same setting: as for B1, the figure is 7; as for B4, 20; as for B5, 10.

The target of a further assay is T2, cynomolgus monkey heterodimeric …. Description: SPR, rabbit IgG captured, cyno single-chain CD3εγ ECD injected.
As a reminder, the Kd is a measure of binding affinity in units of concentration. In general, koff refers to the first-order rate constant of dissociation. The kon is a measure of how fast the partners come together. The molecule B2 registered an equilibrium dissociation constant (Kd) of 10.2 nM, a koff of 0.00392 s⁻¹ and an on-rate constant (kon) of 386000 M⁻¹ s⁻¹.
On the same counts, the results for B3 are 10 nM, 0.00365 s⁻¹ and 363000 M⁻¹ s⁻¹.
For the molecule B1, the Kd is 10.9 nM, the dissociation rate constant (koff) came to 0.00349 s⁻¹ and the association rate constant (kon) amounted to 321000 M⁻¹ s⁻¹.
For the molecule B4, binding was characterised by a dissociation constant (Kd) of 22.2 nM, the koff was determined as 0.00314 s⁻¹ and the kon worked out at 142000 M⁻¹ s⁻¹.
In turn, B5 displayed a Kd of 11.6 nM, a koff of 0.00269 s⁻¹ and an on-rate constant (kon) of 232000 M⁻¹ s⁻¹.

For another assay, the target named is T3, human heterodimeric single-chain CD3εγ extracellular domain (human, UniProt P07766 23-126; P09693 23-116).
T3 construct: extracellular domain; Produced in-house; also called scCD3γε; human CD3ge
In words: SPR, rabbit IgG captured, human single-chain CD3εγ ECD injected. The procedure:
Binding affinities of monoclonal rabbit anti-CD3 antibodies were measured by surface plasmon resonance (SPR) using a MASS-1 SPR instrument (Sierra Sensors). […] Rabbit monoclonal antibodies were captured by the immobilized anti-rabbit IgG antibody. Two-fold serial dilutions of human heterodimeric single-chain CD3εγ extracellular domain (produced in-house) ranging from 90 to 2.81 nM were injected into the flow cells for 3 min and dissociation of the protein from the IgG captured on the sensor chip was allowed to proceed for 5 min. After each injection cycle, surfaces were regenerated with two injections of 10 mM glycine-HCl. The apparent dissociation (kd) and association (ka) rate constants and the apparent dissociation equilibrium constant (KD) were calculated with the MASS-1 analysis software (Analyzer, Sierra Sensors) using one-to-one Langmuir binding model.
Turning to B2, binding was put at a Kd of 2.97 nM, the koff worked out at 0.00159 s⁻¹ and the kon was 536000 M⁻¹ s⁻¹.
Turning to B3, binding was put at a Kd of 3.13 nM, the koff came to 0.00133 s⁻¹ and the kon came out at 425000 M⁻¹ s⁻¹.
Regarding B1, the Kd was found to be 1.66 nM, the koff was 0.00126 s⁻¹ and the kon amounted to 757000 M⁻¹ s⁻¹.
In turn, B4 had a Kd of 1.11 nM, a koff of 0.000798 s⁻¹ and a kon of 721000 M⁻¹ s⁻¹.
For the molecule B5, the Kd came to 1.14 nM, the koff is 0.000688 s⁻¹ and the kon worked out at 601000 M⁻¹ s⁻¹.

A further assay concerns the target T1, human CD3ε expressed on the cell …. Description: cell-based ELISA on Jurkat cells, CD3ε-deficient Jurkat subtracted. The method, then:
Jurkat cells (clone E6-1), a human T cell line, were seeded at 300,000 cells/well in round bottom 96-well plates in 100 μl phosphate-buffered saline (PBS) containing 10% FBS. Five-fold serial dilutions of anti-CD3 rabbit monoclonal antibodies ranging from 90 nM to 0.0058 nM were added to the plates in 100 μl PBS containing 10% FBS. […] This secondary antibody was linked to the enzyme horseradish peroxidase (HRP). HRP activity was measured by addition of TMB substrate (3,3′,5,5′-tetramethylbenzidine, KPL, Cat. No. 53-00-00), which in a colorimetric reaction is processed by the HRP. The color intensity of the processed substrate is directly proportional to the amount of anti-CD3 antibody bound to Jurkat cells. To quantify color intensity, light absorbance (optical density) at the respective wave length was measured using a microtiter plate reader (Infinity reader M200 Pro, Tecan).
To correct for unspecific binding of the antibodies to unknown components presented on the cell surface of Jurkat cells, a CD3ε deficient derivative of the Jurkat T cell line (J.RT3-T3.5) was used. Binding of the monoclonal antibodies to this cell line was measured as described above for the Jurkat cells. For quantification of specific binding to Jurkat cells, the optical density for binding to the negative control was subtracted from the optical density for binding to Jurkat cells. Data were analyzed using a four-parameter logistic curve fit using the Softmax Data Analysis Software (Molecular Devices), and the molar concentration of anti-CD3 antibody required to reach 50% binding (EC₅₀, mid-OD of the standard curve) was derived from dose response curves.
As a reminder, the EC50 is the concentration giving half of the maximal effect. Regarding B2, the EC50 came out at 0.58 nM.
On to B3, for which the response was half-maximal at 0.28 nM (EC50).
B1 yielded an EC50 of 0.35 nM.
B4 had an EC50 of 0.59 nM.
With B5, the half-maximal effective concentration (EC50) is 0.82 nM.
